Bridge positions count the residues as written; N and C are the ends. Square brackets hold non-standard residues; d marks the D form. Ends that are not written are not given here. S5 = C=CCCC[C@](C)(N)C(=O)O
T1: Purified TRB3 protein (purchased from RD) (UniProt Q96RU7 1-358, limits assumed)
T1 construct: Amine-coupled to the Biacore chip; also called Tribbles Homologue 3
T1 sequence (looked up): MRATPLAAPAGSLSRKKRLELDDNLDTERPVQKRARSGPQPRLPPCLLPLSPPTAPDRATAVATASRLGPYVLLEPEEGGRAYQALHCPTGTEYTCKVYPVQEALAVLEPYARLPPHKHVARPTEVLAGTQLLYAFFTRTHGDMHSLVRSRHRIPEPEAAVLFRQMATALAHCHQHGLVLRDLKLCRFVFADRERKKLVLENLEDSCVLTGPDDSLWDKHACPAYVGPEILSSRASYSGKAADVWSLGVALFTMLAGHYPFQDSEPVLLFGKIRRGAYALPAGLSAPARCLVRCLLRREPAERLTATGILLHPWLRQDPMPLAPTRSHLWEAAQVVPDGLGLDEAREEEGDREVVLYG

B1: polypeptide MR2 (peptide)
peptide: HLMACFTCAKKLKKR
notes: Synthetic unmodified 15-mer; also called MR2 polypeptide

target: T1, Purified TRB3 protein (purchased from …); experiment: SPR, Biacore T200, TRB3 amine-coupled to chip, peptide as analyte, 25° C.
Description: The surface plasmon resonance experiment was carried out in a surface plasmon resonator Biacore T200, and the procedure was carried out in accordance with the instructions of the plasma resonator Biacore T200. Specific steps are as follows:
1. Purified TRB3 protein (purchased from RD) was coupled to a CMS chip (purchased from GE) by amidogen, and the unbound protein was eluted at a flow rate of 10 μL/min. The surface of the chip was equilibrated for 2 hours. Among them, the specific steps of amidogen coupling, elution and equilibration refer to the relevant instruction of GE's CMS chip.
2. […] The buffer used was HBS-EP buffer [0.01 M HEPES, 0.15 M NaCl, 3 mM EDTA and 0.005% (w/w) surfactant TWEEN20]. Biacore T200's built-in analysis software was used to simulate the binding curves of different concentrations of peptides to TRB3. FIG. 4-1, 4-2 and Table 1 illustrate that peptides MR2, S1, S2, S3, S4, S5, S6, S7, S8, S9, S10 and S11 can all interacted with the TRB3 protein.

Row | Kd [nM] | Binder
1 | 37.7 | HLMACFTCAK[S5]LKK[S5] (staple 11-15; cysteine pairing not given here, Stapled variant of MR2) [polypeptide S11]
2 | 8.95 | HLMACF[S5]CAK[S5]LKKR (staple 7-11; cysteine pairing not given here, Stapled variant of MR2) [polypeptide S7]
3 | 11.5 | HLMA[S5]FTC[S5]KKLKKR (staple 5-9, Stapled variant of MR2) [polypeptide S5]
4 | 35.9 | HLMACFT[S5]AKK[S5]KKR (staple 8-12, Stapled variant of MR2) [polypeptide S8]
5 | 9.63 | HLM[S5]CFT[S5]AKKLKKR (staple 4-8, Stapled variant of MR2) [polypeptide S4]
6 | 20.2 | [S5]LMA[S5]FTCAKKLKKR (staple 1-5, Stapled variant of MR2) [polypeptide S1]
7 | 19.1 | H[S5]MAC[S5]TCAKKLKKR (staple 2-6; cysteine pairing not given here, Stapled variant of MR2) [polypeptide S2]
8 | 42.7 | HL[S5]ACF[S5]CAKKLKKR (staple 3-7; cysteine pairing not given here, Stapled variant of MR2) [polypeptide S3]
9 | 29.3 | HLMACFTCA[S5]KLK[S5]R (staple 10-14; cysteine pairing not given here, Stapled variant of MR2) [polypeptide S10]
10 | 49.6 | HLMAC[S5]TCA[S5]KLKKR (staple 6-10; cysteine pairing not given here, Stapled variant of MR2) [polypeptide S6]
11 | 43.3 | B1
12 | 37.1 | HLMACFTC[S5]KKL[S5]KR (staple 9-13; cysteine pairing not given here, Stapled variant of MR2) [polypeptide S9]

Source: patent US20210179680A1, “POLYPEPTIDE, DERIVATIVES THEREOF, AND APPLICATION THEREOF IN PREPARATION OF DRUGS HAVING RESISTANCE TO PULMONARY FIBROSIS” (priority 2016, published 2021)
